Reference: publication PMC4993999, “Asymmetry in inward- and outward-affinity constant of transport explain unidirectional lysine flux in Saccharomyces cerevisiae” (Scientific Reports, 2016)

Tests used:
purified protein [1] = substrate: NCCCC[C@H](N)C(=O)O; assay: purified protein; settings: PMF-driven: ΔΨ -84 mV, ZΔpH -84 mV, external pH 6.0, internal pH 7.3, 30 °C, labelled compound
purified protein [2] = substrate: NCCCC[C@H](N)C(=O)O; assay: purified protein; assay type: biochemical, Saccharomyces cerevisiae; settings: PMF-driven: ΔΨ -84 mV, ZΔpH -84 mV, external pH 6.0, internal pH 7.3, 30 °C, labelled compound, high-affinity component (out-to-in) of hyperbola plus linear fit
[3] = substrate: NCCCC[C@H](N)C(=O)O; assay: cells, lysate or membranes; assay type: cell-based, Saccharomyces cerevisiae; settings: whole cells 22∆6AAL, 100 mM potassium phosphate, 10 mM glucose, pH 6.0, 30 °C, labelled compound

B1: LysP (Salmonella enterica subsp. enterica serovar Typhimurium str. LT2) (protein)
chain: MGSKTKTTEAPALRRELKARHLTMIAIGGSIGTGLFVASGATISQAGPGGALFSYILIGLMVYFLMTSLGELAAYMPVSGSFATYGQNYVEEGFGFALGWNYWYNWAVTIAVDLVAAQLVMGWWFPDTPGWIWSALFLCVIFLLNYISVRGFGEAEYWFSLIKVATVIIFIIVGVAMIIGIFKGVEPVGWSNWTTGDAPFAGGFAAMIGVAMIVGFSFQGTELIGIAAGESENPEKNIPRAVRQVFWRILLFYVFAILIISLIIPYTDPNLLRNDVKDISVSPFTLVFQHAGLLSAAAIMNAVILTAVLSAGNSGMYASTRMLYTLACDGKAPRIFAKLSRGGVPRNALYATTVIAGLCFLTSMFGNQTVYLWLLNTSGMTGFIAWLGIAISHYRFRRGYVLQGYDVNDLPYRSGFFPLGPIFAFVLCLIITLGQNYEAFLKDTIDWGGVAATYIGIPLFLLIWFGYKLIKGTHFVRYSEMHFPERVKK
Work on B1 yielded a Km (purified protein [1]) of 1.5 ± 0.2 µM.

B2: Lyp1-GFP (Lyp1-TEV-GFP-His10) (Saccharomyces cerevisiae S288C) (protein)
chain: MGRFSNIITSNKWDEKQNNIGEQSMQELPEDQIEHEMEAIDPSNKTTPYSIDEKQYNTKKKHGSLQGGAIADVNSITNSLTRLQVVSHETDINEDEEEAHYEDKHVKRALKQRHIGMIALGGTIGTGLFVGISTPLSNAGPVGSLIAYIFMGTIVYFVTQSLGEMATFIPVTSSITVFSKRFLSPAFGVSNGYMYWFNWAITYAVEVSVIGQVIEYWTDKVPLAAWIAIFWVIITLMNFFPVKVYGEFEFWVASVKVLAIMGYLIYALIIVCGGSHQGPIGFRYWRNPGAWGPGIISSDKSEGRFLGWVSSLINAAFTYQGTELVGITAGEAANPRKTVPRAINKVVFRIVLFYIMSLFFIGLLVPYNDSRLSASSAVIASSPFVISIQNAGTYALPDIFNAVVLITVVSAANSNVYVGSRVLYSLARTGNAPKQFGYVTRQGVPYLGVVCTAALGLLAFLVVNNNANTAFNWLINISTLAGLCAWLFISLAHIRFMQALKHRGISRDDLPFKAKLMPYGAYYAAFFVTVIIFIQGFQAFCPFKVSEFFTSYISLILLAVVFIGCQIYYKCRFIWKLEDIDIDSDRREIEAIIWEDDEPKNLWEKFWAAVA
notes: full length, C-terminal TEV-GFP-His10 kept; expressed in Pichia pastoris SMD1163; purified and reconstituted in yeast/E. coli lipid vesicles
B2 gave a Km (purified protein [2]) of 20 ± 14 µM.

B3: Lyp1-YPet (Saccharomyces cerevisiae S288C) (protein)
chain: MGRFSNIITSNKWDEKQNNIGEQSMQELPEDQIEHEMEAIDPSNKTTPYSIDEKQYNTKKKHGSLQGGAIADVNSITNSLTRLQVVSHETDINEDEEEAHYEDKHVKRALKQRHIGMIALGGTIGTGLFVGISTPLSNAGPVGSLIAYIFMGTIVYFVTQSLGEMATFIPVTSSITVFSKRFLSPAFGVSNGYMYWFNWAITYAVEVSVIGQVIEYWTDKVPLAAWIAIFWVIITLMNFFPVKVYGEFEFWVASVKVLAIMGYLIYALIIVCGGSHQGPIGFRYWRNPGAWGPGIISSDKSEGRFLGWVSSLINAAFTYQGTELVGITAGEAANPRKTVPRAINKVVFRIVLFYIMSLFFIGLLVPYNDSRLSASSAVIASSPFVISIQNAGTYALPDIFNAVVLITVVSAANSNVYVGSRVLYSLARTGNAPKQFGYVTRQGVPYLGVVCTAALGLLAFLVVNNNANTAFNWLINISTLAGLCAWLFISLAHIRFMQALKHRGISRDDLPFKAKLMPYGAYYAAFFVTVIIFIQGFQAFCPFKVSEFFTSYISLILLAVVFIGCQIYYKCRFIWKLEDIDIDSDRREIEAIIWEDDEPKNLWEKFWAAVA
notes: full length, C-terminal TEV-YPet-His8 kept; expressed from plasmid under native LYP1 promoter in S. cerevisiae 22∆6AAL
For B3, the Km [3] was 10 ± 0.8 µM.
